Earlier results on two substances are cited in article PMC5450005.

Like-named read-outs stand apart in the source and are kept apart here.

The target in data set [1] is ApelinR (Rattus norvegicus) (UniProt Q9JHG3).
Data set [2] shares this target. This is another data set of the same source.

Chain of UniProt Q9JHG3 (Q9JHG3 whole entry): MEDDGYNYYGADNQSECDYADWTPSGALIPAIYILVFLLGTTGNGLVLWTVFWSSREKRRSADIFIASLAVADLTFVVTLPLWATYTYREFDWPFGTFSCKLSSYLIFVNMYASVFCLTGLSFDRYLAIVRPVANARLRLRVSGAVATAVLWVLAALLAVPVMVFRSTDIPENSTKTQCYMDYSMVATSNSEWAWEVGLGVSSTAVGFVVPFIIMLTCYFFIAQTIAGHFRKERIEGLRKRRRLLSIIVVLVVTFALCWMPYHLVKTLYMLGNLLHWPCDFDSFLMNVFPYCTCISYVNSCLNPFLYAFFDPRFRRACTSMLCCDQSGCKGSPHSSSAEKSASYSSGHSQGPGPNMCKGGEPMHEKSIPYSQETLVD

As a reminder, the Ki is a dissociation constant, usually derived from enzyme kinetics or from competition with a known ligand. On to K17F (apelin-17) (from UniProt Q9ULZ1), for which, in data set [1], the inhibition constant (Ki) is 0.06 nM.

With pE13F (apelin-13) (from UniProt Q9ULZ1), in data set [2], the Ki was 0.56 nM.
